B1: CPEB3 Ribozyme (parent)
chain: GGGGGCCACAGCAGAAGCGUUCACGUCGCGGCCCCUGUCAGAUUCUGGUGAAUCUGCGAAUUCUGCUGU

Variants of B1 are the subject of this data set. Nature of the data set: self-cleavage, relative activity (ratio to wild type); higher = more cleavage; co-transcriptional.
As for U20G G47A, the self-cleavage stood at 0.247.
With U20G G47C, the self-cleavage came out at 0.189.
For U21C C24G the value was 0.223.
On to U21C C24U, for which the self-cleavage was 0.429.
For the variant U21A G37U, the self-cleavage came to 0.356.
With U21A U44A, the self-cleavage amounted to 0.901.
For U21A U44C, the self-cleavage was found to be 0.817.
Turning to U21A U44G, the self-cleavage came to 0.952.
In the case of U21A C66G, the self-cleavage amounted to 0.835.
Consider U21A C66A, for which the self-cleavage turned out to be 0.781.
Regarding U21A A60C, the self-cleavage amounted to 0.29.
For the variant U21A A60G, the self-cleavage worked out at 0.879.
For the variant U21A A60U, the self-cleavage was 0.586.
U21A C27U: the self-cleavage worked out at 0.162.
For the variant U21A C27A, the self-cleavage stood at 0.447.
For U20C U49A, the self-cleavage stood at 0.137.
Regarding U20C U49C, the self-cleavage came out at 0.214.
Take U20C U49G: the self-cleavage is 0.231.
For U20G, the self-cleavage worked out at 0.207.
For the variant U21C C63A, the self-cleavage stood at 0.47.
For U21C C63U the value was 0.804.
For U21C C63G, the self-cleavage amounted to 0.635.
In the case of U20G U46A, the self-cleavage was determined as 0.164.
In the case of U20G U46C, the self-cleavage worked out at 0.164.
Consider U21A A42G, for which the self-cleavage turned out to be 0.858.
For U21A A42C, the self-cleavage was 0.902.
With U20C G25C, the self-cleavage turned out to be 0.249.
Turning to U20C G25U, the self-cleavage turned out to be 0.616.
For U20C G25A the value was 0.68; for U20G A42G, 0.079.
Turning to U20G A42C, the self-cleavage is 0.279.
Consider U20G A42U, for which the self-cleavage came to 0.216.
For U21C C34A the value was 0.303; for U21C C34G, 0.328.
With U21C C34U, the self-cleavage is 0.898.
For U20C G50U, the self-cleavage was determined as 0.245.
U20G G50C: the self-cleavage was determined as 0.246.
Consider U20G G50A, for which the self-cleavage stood at 0.206.
As to U20G U53C, the self-cleavage was 0.222.
Consider U20G U53A, for which the self-cleavage was 0.127.
As for U20G U53G, the self-cleavage came out at 0.166.
As for U20G G30A, the self-cleavage was determined as 0.126.
As to U20C G41A, the self-cleavage stood at 0.247.
Consider U20C G41U, for which the self-cleavage stood at 0.137.
In the case of U20C G41C, the self-cleavage is 0.139.
In the case of U21A C33A, the self-cleavage worked out at 0.808.
U21A C33G: the self-cleavage was 0.536.
In the case of U21A C33U, the self-cleavage came to 1.
Regarding U20C U53C, the self-cleavage stood at 0.161.
For the variant U21C A23U, the self-cleavage was determined as 0.803.
On to U21C A23C, for which the self-cleavage amounted to 0.608.
On to U21C C35U, for which the self-cleavage was determined as 0.716.
As to U21C C35G, the self-cleavage was 0.206.
As for U21C G37C, the self-cleavage worked out at 0.23.
For U20G G41A the value was 0.127; for U20G G41C, 0.0984.
In the case of U20G G41U it was 0.194; in that of U21A C24A, 0.541.
As for U21A C24G, the self-cleavage came out at 0.214.
Take U21A G47C: the self-cleavage worked out at 0.988.
For U21A G47A, the self-cleavage stood at 0.969.
Take U21A G47U: the self-cleavage turned out to be 0.992.
Turning to U21A U55C, the self-cleavage was 0.874.
As for U20G C57U, the self-cleavage was 0.143.
With U20G G48U, the self-cleavage was 0.141.
Turning to U20G G48A, the self-cleavage was 0.127.
For U21C G28U the value was 0.105; for U21C G28C, 0.0853.
In the case of U21C C57U it was 0.379.
For U21C C57A, the self-cleavage was determined as 0.252.
On to U20C G31U, for which the self-cleavage was 0.204.
In the case of U20C G31A, the self-cleavage turned out to be 0.261.
U20C G31C: the self-cleavage came out at 0.148.
In the case of U20C U67G it was 0.164.
Take U20C U67A: the self-cleavage worked out at 0.233.
Regarding U20G G56C, the self-cleavage amounted to 0.104.
For U20G G56A the value was 0.191; for U20G G56U, 0.199; for U20C U26C, 0.235.
As for U20C U26A, the self-cleavage came to 0.205.
For U20C U26G the value was 0.114; for U21A C35A, 0.323.
For U21A C35U, the self-cleavage was 0.869.
With U21C C54G, the self-cleavage worked out at 0.688.
In the case of U21C C54A it was 0.769.
With U21C C54U, the self-cleavage was 0.883.
As for U21A A40C, the self-cleavage is 0.651.
For U21A A40U the value was 0.896.
Regarding U21A A40G, the self-cleavage turned out to be 0.97.
With U21C A40C, the self-cleavage stood at 0.372.
In the case of U21C A40G it was 0.719.
As to U21C A40U, the self-cleavage turned out to be 0.642.
For U21C C22A the value was 0.24.
As to U20G C63U, the self-cleavage was found to be 0.246.
Consider U20G C63G, for which the self-cleavage was 0.21.
With U20G U38C, the self-cleavage is 0.185.
As for U20G U38A, the self-cleavage stood at 0.288.
As to U21A U46G, the self-cleavage worked out at 0.934.
For U21A U46A, the self-cleavage turned out to be 1.03.
Consider U21A U46C, for which the self-cleavage was 0.926.
On to U20G C45U, for which the self-cleavage is 0.202.
Turning to U20G C45G, the self-cleavage was 0.11.
In the case of U20G C45A it was 0.221.
In the case of U20G G31A, the self-cleavage was found to be 0.155.
On to U20G G31C, for which the self-cleavage was found to be 0.134.
For the variant U20G C66U, the self-cleavage came to 0.216.
As for U21C C33U, the self-cleavage came to 0.919.
For the variant U20C G37U, the self-cleavage amounted to 0.114.
Take U20C G37A: the self-cleavage is 0.102.
For U20G G28A the value was 0.186; for U20G G28C, 0.145.
As to U20G U69C, the self-cleavage amounted to 0.281.
For the variant U20G U69G, the self-cleavage is 0.322.
For U21C G25C the value was 0.118; for U21C G25U, 0.13.
With U21C G25A, the self-cleavage stood at 0.121.
For the variant U20G A59U, the self-cleavage was 0.176.
In the case of U20G A59G it was 0.204; in that of U21A C57G, 0.361.
For the variant U21A C57A, the self-cleavage came out at 0.268.
For U21A C57U the value was 0.447.
In the case of U21A U26A it was 0.796.
In the case of U21A U26G, the self-cleavage is 0.869.
In the case of U21A U26C it was 0.985; in that of U20G U43C, 0.182.
With U20G U43A, the self-cleavage was found to be 0.0656.
In the case of U21A U64C it was 0.874.
U21A U64A: the self-cleavage turned out to be 0.91.
Consider U20C U62C, for which the self-cleavage is 0.204.
With U20C U43C, the self-cleavage stood at 0.212.
In the case of U21C G31U it was 0.395; in that of U20C U46G, 0.275; in that of U20C U46C, 0.257.
Consider U20C U46A, for which the self-cleavage came out at 0.262.
Take U20G C54G: the self-cleavage turned out to be 0.118.
With U20G C54U, the self-cleavage is 0.196.
On to U20G C54A, for which the self-cleavage is 0.203.
With U21A A23C, the self-cleavage is 0.969.
For the variant U21A A23G, the self-cleavage stood at 0.943.
For the variant U21A A23U, the self-cleavage was found to be 0.962.
Turning to U20G C24G, the self-cleavage amounted to 0.146.
In the case of U20G C24U it was 0.144.
As to U21A G30U, the self-cleavage was determined as 0.343.
As to U21A G30C, the self-cleavage came to 0.532.
U21A C45U: the self-cleavage stood at 0.967.
For the variant U21A C45G, the self-cleavage stood at 0.956.
As for U21A C45A, the self-cleavage amounted to 1.01.
For U21A G41U the value was 0.824; for U21A G41A, 0.855; for U21A G41C, 0.694.
For U21C C45U the value was 0.88; for U21C C45A, 0.87.
Turning to U20G A60G, the self-cleavage turned out to be 0.0625.
In the case of U20G A60U it was 0.073; in that of U20G A60C, 0.191; in that of U21A G31U, 0.595.
For U21A G31A the value was 0.803.
With U21C G30U, the self-cleavage is 0.268.
Turning to U21C G30C, the self-cleavage was found to be 0.235.
As to U21C G30A, the self-cleavage turned out to be 0.522.
Take U20G G37A: the self-cleavage worked out at 0.173.
As for U20G G37C, the self-cleavage was 0.151.
U20G U67G: the self-cleavage is 0.152.
In the case of U21A U62A it was 0.853.
In the case of U21A U62G it was 0.798; in that of U20G U62G, 0.292.
In the case of U20G U62A, the self-cleavage was 0.183.

The values are drawn from the RNAGym collection of RNA variant scans (doi:10.7554/elife.80360).
